Measured values as given in patent US20260055441A1, “A PCR-ELISA ANALOGOUS ANTIBODY-FREE METHOD FOR DETECTING A TARGET NUCLEIC ACID IN A SAMPLE” (UNIVERSITÄT HEIDELBERG, priority 2022, published 2026).
“And” between values parts separate entries of the source, which are not always exact repeats. Equal entries are not always repeated. No end group written: not given here.

Experiments:
[1] = biological target: T1, latent papain P13 (Carica papaya, UniProt P00784); assay: Screening of peptide-based papain activators, rates normalized to cysteine ethyl ester (FIG. 19, FIG. 20); assay type: biochemical; conditions: for normalized ratio rate/rate cysteine ethyl ester (CysEE): activator 50 nM, latent papain P13 1 nM, substrate 2 μM, pH 7
T1 construct: purchased Sigma Aldrich (Munich, Germany); host or cells: Papaya latex (natural source)
T1 sequence (P00784 134-345): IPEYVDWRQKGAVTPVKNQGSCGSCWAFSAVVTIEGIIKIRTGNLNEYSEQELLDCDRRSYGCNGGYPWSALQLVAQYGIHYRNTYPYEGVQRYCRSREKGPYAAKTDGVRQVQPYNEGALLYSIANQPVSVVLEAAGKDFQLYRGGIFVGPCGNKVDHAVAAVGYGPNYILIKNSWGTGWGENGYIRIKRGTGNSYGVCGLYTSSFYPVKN
Experimental: L-Cysteine ethyl ester was utilized in identical peptide concentrations as a standard in order to calculate normalized reaction rates for each synthesized peptide.
[…] The assays were conducted in well buffer with 1 nM latent papain P13. In order to give a clear overview, only the normalized rates for activator concentrations of 50 nM are depicted and compared.
Additionally, 1 μM TCEP was added to each well of the cysteine concentration series in order to examine the influence of TCEP on reaction rates of thiols.
Different assays of reactivating latent papain in solution were conducted in the course of this work. Various buffer compositions, supplements, 96 well plates, substrates, activators, concentrations as well as different latent papain forms were compared. In order to get an overview of all experiments, a standard method is described in the following and variations of this method are subsequently defined. First, the well buffer was prepared (0.1 M phosphate buffer pH 7, 4 mM EDTA, 0.01% Brij35). A 1 mM TCEP solution was prepared with 3 mM NaOH in 0.1 M Tris-HCl buffer pH 8. Papain substrate (Z-Phe-Arg-AMC or Suc-Leu-Leu-Val-Tyr-AMC) was prepared as a 200 μM solution in water and transferred equally to a PCR strip. Three serial dilutions of the activating agent with well buffer were used in the different experiments and the corresponding pipetting schemes are shown in Table 9. Papain was diluted to 0.1 μM with well buffer and transferred equally to a PCR strip. […] 342.4 μL of TCEP containing well buffer was transferred to each well, followed by 3.8 μL papain solution. After mixing, 30 μL of the prepared activator concentrations (see Table 9) were added and mixed. In the last step, 3.8 μL of the substrate solution was added and mixed, to yield a final well composition of 0.1 M phosphate buffer pH 7, 1 nM papain, 2 μM substrate, activator (see Table 9), 4 mM EDTA, 0.01% Brij35 and 1 μM TCEP. For experiments with only one activator concentration of 10 μM, the transferred well buffer for each well was 368.6 μL, followed by 3.8 μL of papain, substrate and activator (1 mM in well buffer) respectively.

[2] = biological target: T1, latent papain P13; assay: Latent papain reactivation assay with thiol activators at 10 μM, rates normalized to 10 μM cysteine (FIG. 18); assay type: biochemical; conditions: activator 10 μM, latent papain 1 nM, Z-Phe-Arg-AMC 2 μM; for normalized ratio rate/rate 10 μM cysteine of substrate hydrolysis after reactivation of latent papain: well buffer pH 7, no TCEP; for reaction rate compared to L-cysteine: pH 7
Experimental: All following described fluorometric assays (Examples 1-3) are based on the reaction of reversibly inactivated papain (latent papain) with an activator containing either sulfur or selenium (with the exception of TCEP). Different latent papain forms, buffer compositions and activators in various concentrations were compared. Papain was hereby transferred in buffer (standard well buffer consisted of 0.1 M phosphate pH 7, 4 mM EDTA, 0.01% Brij35 and if activators contained diselenides, 1 μM TCEP) mixed with activator and substrate inside 96 well plates (without prior washing of the plates). After reactivation, active papain hydrolyses the substrate Z-Phe-Arg-AMC (2 μM) and the resulting fluorescence was tracked every minute for 2 h. The slopes of the corresponding curves were calculated for the linear portion within the first 30 minutes and the resulting reaction rates were directly compared. Resulting reaction rates directly reflect reactivation efficiencies of each activator under each reaction condition. […] After addition of activator a fraction of latent papain is immediately reactivated in rather non-stoichiometric proportions. Complete reactivation can generally only be achieved with great excess of activator. The partial reactivation with smaller activator amounts appears almost instantaneously because the resulting reaction curve show linear progression from the start except for very low activator concentrations. After reactivation, all different latent papain forms result in the same active enzyme. If different latent papain forms show different reaction rates in identical activation assays, the efficiency of reactivation with the applied activator can be deduced. The same applies for reactivation of one latent papain form with different activators or reaction conditions.
Several thiol compounds and cysteine containing peptide activators (see Example 4.1) were compared for their potential to reactivate latent papain. To this end, the thiol compounds and cysteine containing peptide activators were utilized in reactivation assays (see Example 5, 5.2.2.2, fluorometric method 2) of papain P13 (see Example 1, 1.2) with an activator concentration of 10 μM. For thiols not completely soluble in phosphate buffer pH 7 at high concentrations, the 1 mM stock solution was prepared in DMSO, resulting in 1% DMSO in the reaction mixture. In order to normalize the observed reaction rates between assays, a 10 μM cysteine sample was additionally measured in every assay and reaction rates of the examined thiols were divided through the reaction rates produced by the 10 μM cysteine standard. Additionally, a measurement with 1 mM cysteine was performed in order to achieve maximal papain activation and therefore the maximal reaction rate within the confines of the assay. The resulting normalized rates are compared in FIG. 18.
Different assays of reactivating latent papain in solution were conducted in the course of this work. Various buffer compositions, supplements, 96 well plates, substrates, activators, concentrations as well as different latent papain forms were compared. In order to get an overview of all experiments, a standard method is described in the following and variations of this method are subsequently defined. First, the well buffer was prepared (0.1 M phosphate buffer pH 7, 4 mM EDTA, 0.01% Brij35). A 1 mM TCEP solution was prepared with 3 mM NaOH in 0.1 M Tris-HCl buffer pH 8. Papain substrate (Z-Phe-Arg-AMC or Suc-Leu-Leu-Val-Tyr-AMC) was prepared as a 200 μM solution in water and transferred equally to a PCR strip. Three serial dilutions of the activating agent with well buffer were used in the different experiments and the corresponding pipetting schemes are shown in Table 9. Papain was diluted to 0.1 μM with well buffer and transferred equally to a PCR strip. After preparation of the abovementioned solutions, TCEP (1 mM solution) was added to well buffer to yield a final TCEP concentration of 1.1 μM. […]

[3] = biological target: T2, latent papain, reversibly inactivated with S-methyl methanethiosulfonate (-S-S-CH3) (Carica papaya, UniProt P00784 134-345, catalytic Cys25 blocked as mixed disulfide -S-S-CH3); assay: cell-based or functional assay
T2 sequence: T1 sequence (P00784 134-345)

[4] = biological target: T3, dU-triazole-PEG3-ULR dimer (21) (not fully specified)
T3 chain: ULR

[5] = FIG. 20, concentration series 50 nM-10 μM

CC(=O)Nc1ccc(S)cc1 [4-acetamidothiophenol, 4-Acetamidothiophenol]
activator efficiency, in words [1, 5]: more potent activators compared to the tripeptide | rate relative to the tripeptide H2N-CLR-CONH2 ([1]; concentration series 50 nM-10 μM (FIG. 20), selenocysteine prepared with TCEP): five times as efficient

SCc1ccc(Cl)cc1 [4-chlorobenzyl mercaptan, 4-Chlorobenzyl mercaptan]
normalized ratio rate/rate 10 μM cysteine of substrate hydrolysis after reactivation of latent papain [2]: 0.83

H2N-C-L-R-G-COOH (H-CLRG-OH) [H2N—CLRG-COOH]
normalized ratio rate/rate cysteine ethyl ester (CysEE) [1]: 0.51

OCCS [2-ME, 2-Mercaptoethan-1-ol]
reaction rate compared to L-cysteine [2]: 70%

H2N-C-L-C-G-CONH2 (H-CLCG-NH2; cysteine pairing not given here) [H2N—CLCG-CONH2]
normalized ratio rate/rate cysteine ethyl ester (CysEE) [1]: most potent activators

H2N-C-L-R-G-CONH2 (H-CLRG-NH2) [H2N—CLRG-CONH2]
normalized ratio rate/rate cysteine ethyl ester (CysEE) [1]: 1.29

Sc1ccccc1 [thiophenol, Thiophenol]
normalized ratio rate/rate 10 μM cysteine of substrate hydrolysis after reactivation of latent papain [2]: 4.86

Nc1nnc(S)s1 [5-Amino-1,3,4-thiadiazole-2-thiol]
normalized ratio rate/rate 10 μM cysteine of substrate hydrolysis after reactivation of latent papain [2]: almost no papain activation potential at all

N[C@H](CS)C(=O)O [D-cysteine]
reaction rate compared to L-cysteine [2]: 70%

H2N-C-C-R-G-CONH2 (H-CCRG-NH2; cysteine pairing not given here) [H2N—CCRG-CONH2]
normalized ratio rate/rate cysteine ethyl ester (CysEE) [1]: most potent activators

CC(C)(S)[C@H](N)C(=O)O [L-penicillamine, L-Penicillamine]
normalized ratio rate/rate 10 μM cysteine of substrate hydrolysis after reactivation of latent papain [2]: lower reaction rates

H2N-C-F-R-CONH2 (H-Cys-Phe-Arg-NH2) [H2N—CFR—CONH2]
normalized ratio rate/rate 10 μM cysteine of substrate hydrolysis after reactivation of latent papain [2]: more than twice as high

N[C@@H](CCS)C(=O)O [L-homocysteine, L-Homocysteine]
normalized ratio rate/rate 10 μM cysteine of substrate hydrolysis after reactivation of latent papain [2]: lower reaction rates

O=C(O)CCP(CCC(=O)O)CCC(=O)O [TCEP, Tris(2-carboxyethyl)phosphine]
activator efficiency, in words [1, 5]: very little efficiency

H2N-C-L-R-CONH2 (H-Cys-Leu-Arg-NH2) [H2N—CLR—CONH2]
normalized ratio rate/rate 10 μM cysteine of substrate hydrolysis after reactivation of latent papain [2]: more than twice as high | potency relative to (L-)cysteine [1, 5]: almost four times as efficient | normalized ratio rate/rate cysteine ethyl ester (CysEE) [1]: 1.8 and 1.81

H-CLRG-NH2 [H2N-CLRG-CONH2]
normalized ratio rate/rate cysteine ethyl ester after reactivation of latent papain P13 (1 nM), activator 50 nM [3]: 1.29 rate/rate cysteine ethyl ester

B1: dU-triazole-PEG3-ULR dimer (21) (peptide)
peptide: X-Leu-Arg-NH2
modifications: not fully specified (residue 1, N-terminus); printed as dU-triazole-PEG3-ULR; also: diselenide dimer
normalized ratio rate/rate blank, P20 against P28 [3]: 2 fold of the normalized rate of P28 | normalized ratio rate/rate blank, activator at half equimolar concentration of papain (printed 500 µM; papain 1 nM) [3]: 33 fold of the background activity | normalized ratio rate/rate blank, activator at the lowest concentration (printed 50 µM; series starts at 50 pM) [3]: 4 fold of the background activity | reaction rate after reactivation of latent papain (1 nM), activator 10 nM, against DTBA (9) [3]: 23 fold of the rate with DTBA (9) | reaction rate after reactivation of latent papain (1 nM), activator 10 nM, against DTT [3]: 159 fold of the rate with DTT | reaction rate after reactivation of latent papain (1 nM), activator 50 nM, against DTBA (9) [3]: 9 fold of the rate with DTBA (9) | reaction rate after reactivation of latent papain (1 nM), activator 50 nM, against DTT [3]: 128 fold of the rate with DTT

H-EGCGRG-OH [H2N-E-G-C-G-R-G-COOH]
normalized ratio rate/rate cysteine ethyl ester after reactivation of latent papain P13 (1 nM), activator 50 nM [3]: < 1 rate/rate cysteine ethyl ester

H-SECLRG-OH [H2N-S-E-C-L-R-G-COOH]
normalized ratio rate/rate cysteine ethyl ester after reactivation of latent papain P13 (1 nM), activator 50 nM [3]: < 1 rate/rate cysteine ethyl ester

H-GLCLRG-OH (not fully specified) [H2N-G-L-C-L-R-G-COOH]
normalized ratio rate/rate cysteine ethyl ester after reactivation of latent papain P13 (1 nM), activator 50 nM [3]: < 1 rate/rate cysteine ethyl ester

H-GKCLRG-OH [H2N-G-K-C-L-R-G-COOH]
normalized ratio rate/rate cysteine ethyl ester after reactivation of latent papain P13 (1 nM), activator 50 nM [3]: < 1 rate/rate cysteine ethyl ester

H-CLRCG-OH (cysteine pairing not given here) [H2N-CLRCG-COOH]
normalized ratio rate/rate cysteine ethyl ester after reactivation of latent papain P13 (1 nM), activator 50 nM [3]: 0.99 rate/rate cysteine ethyl ester

H-GGCGGG-OH [H2N-G-G-C-G-G-G-COOH]
normalized ratio rate/rate cysteine ethyl ester after reactivation of latent papain P13 (1 nM), activator 50 nM [3]: < 1 rate/rate cysteine ethyl ester

H-Cys-Leu-Arg-NH2 [H2N-CLR-CONH2]
normalized ratio rate/rate cysteine ethyl ester after reactivation of latent papain P13 (1 nM), activator 50 nM [3]: 1.81 rate/rate cysteine ethyl ester | reaction rate after reactivation of latent papain P13 (1 nM), concentration series 50 nM-10 uM, against free cysteine [3]: ~4 fold of free cysteine

H-FVCEKG-OH [H2N-F-V-C-E-K-G-COOH]
normalized ratio rate/rate cysteine ethyl ester after reactivation of latent papain P13 (1 nM), activator 50 nM [3]: < 1 rate/rate cysteine ethyl ester

B2: latent papain P23 (-S-S-(CH2)2-NH2) (protein)
chain: T1 sequence (P00784 134-345)
reaction rate of Z-Phe-Arg-AMC hydrolysis after reactivation of latent papain (1 nM) with activator 1-15 nM [4]: papain P23, containing the positively charged amino group, was found to be by far the most efficiently reactivated latent papain form

H-CLRG-OH [H2N-CLRG-COOH]
normalized ratio rate/rate cysteine ethyl ester after reactivation of latent papain P13 (1 nM), activator 50 nM [3]: 0.51 rate/rate cysteine ethyl ester
